What was measured:
[1] = tested on: mouse liver cell line (AML12); experiment: qPCR of fibrosis-related genes in TGF-β1-treated liver cell line, rhKAI1 / pepKAI1 WT / pepKAI1 Mut; type: cell-based; conditions: 200 or 500 ng/mL for 2 hours, then TGF-β1 2 ng/ml 24 hours
Method: The effect of wild type KAI1 peptide (pepKAI1 WT) or mutant KAI1 peptide (pepKAI1 Mut) on fibrosis induced by treatment with TGF-β1 was confirmed in mouse liver cell line (AML12).
Specifically, the AML 12 cells were treated with recombinant human KAI1 protein (rhKAI1), wild type KAI1 peptide (pepKAI1 WT), and mutant KAI1 peptide (pepKAI1 Mut) at a concentration of 200 ng/mL or 500 ng/mL, respectively, and reacted for 2 hours. Thereafter, the cells were treated with TGF-β1 at a concentration of 2 ng/ml and cultured for an additional 24 hours, and then the cells were collected. RNA from the collected cells was extracted with Trizol, cDNA was synthesized, and then changes in expression of fibrosis-related genes (α-SMA, Col1a1, TIMP1, Vimentin, TGF-β, and fibronectin) were confirmed by qPCR analysis.

[2] = tested on: acute hepatic fibrosis model mice; experiment: H&E staining of liver tissue in CCl4 acute hepatic fibrosis animal model; type: in vivo; conditions: C57BL/6 male mice, CCl4 i.p. twice a week; 4 μg KAI1 protein i.p. per mouse on day 8, liver extracted day 11
Method: (§1) Specifically, 7-week-old C57BL/6 male mice was prepared, and CCl4 was diluted in corn oil at a concentration of 1 mL/kg. In order to induce acute liver injury, the mice were injected intraperitoneally with the diluted CCl4 twice a week. As a control group, the mice were intraperitoneally injected with the same amount of the corn oil.
(§2) As a KAI1 protein, a polypeptide (Human CD82/KAI-1 Protein (His Tag), Sino Biological Inc.) comprising a KAI1 fragment comprising a polypeptide (extracellular domain, SEQ ID NO: 4) consisting of the 111st to 228th amino acid sequence from the N terminus in a polypeptide consisting of the amino acid sequence of SEQ ID NO: 1 was used. On the 8th day after the start of the experiment, 4 μg of KAI1 protein was injected intraperitoneally per mouse, and on the 11th day, the mice were sacrificed and liver tissue was extracted.
The liver tissue extracted in Example 2.1. was fixed in 10% (v/v) formalin solution. Thereafter, the liver tissue was embedded in paraffin and sectioned to a thickness of 4 μm to prepare tissue sections. After deparaffinization and superhydration, H&E (hematoxylin & eosin) staining was performed and observed under an optical microscope.

[3] = tested on: acute hepatic fibrosis model mice; experiment: qPCR of fibrosis-related genes in liver tissue of CCl4 acute hepatic fibrosis animal model; type: in vivo, mouse; conditions: 4 μg KAI1 protein i.p. day 8, liver day 11, vs. CCl4
Method: as §1, §2
RNA was obtained from the liver tissue extracted in Example 2.1. The RNA from the liver tissue was obtained using Favorgen® Trizol according to the manufacturer's instructions. The RNA was reverse transcribed into cDNA using a cDNA synthesis kit (Bioneer corp.). Thereafter, real-time PCR (qPCR) was performed to confirm changes in the expression levels of fibrosis-related genes Col1a1 (collagen type 1), fibronectin, and TGFβ1 (transforming growth factor-β1).

liver cell line (AML12) = experiment: qPCR of fibrosis-related genes in TGF-β1-treated liver cell line, KAI1 protein; type: cell-based, mouse; conditions: 200 or 500 ng/mL for 2 hours, then TGF-β1 2 ng/mL 24 hours
Method: In order to confirm the activity of KAI1protein to inhibit hepatic fibrosis at the cellular level, the liver cell line (AML12), which had hepatic fibrosis induced by treatment with TGF-β1, was treated with KAI1 protein to confirm changes in the expression of fibrosis-related genes.
Specifically, the AML 12 cells were cultured in DMEM/F12 medium containing 10% (v/v) fetal bovine serum (FBS), 1% (w/v) penicillin-streptomycin, 10 μg/mL insulin, 5.5 μg/mL transferrin, 5 ng/mL selenium, and 40 ng/ml dexamethasone. The AML12 cells were treated with KAI1 protein at a concentration of 200 ng/ml or 500 ng/mL, respectively, and reacted for 2 hours. Thereafter, the cells were treated with TGF-β1, a fibrosis-inducing cytokine, at a concentration of 2 ng/mL and cultured for an additional 24 hours, and then the cells were collected. RNA from the collected cells was extracted with Trizol, cDNA was synthesized, and then changes in expression of fibrosis-related genes (α-SMA, Col1a1, TIMP1, and MMP9) were confirmed by qPCR analysis.

[4] = tested on: mouse liver cell line (AML12); experiment: Immunoblotting of ZO-1 (EMT) in TGF-β1-treated liver cell line; type: cell-based; conditions: 500 ng/ml for 2 hours, then TGF-β1 24 or 48 hours
Method: The epithelial-mesenchymal transition (EMT) process has been proposed as one of the mechanisms of fibrosis. Therefore, the effect of KAI1 protein on the EMT process induced by TGF-1 in mouse liver cell line (AML12) was confirmed.
Specifically, the AML12 cells were treated with of KAI1 protein at a concentration of 500 ng/ml and reacted for 2 hours. Thereafter, the cells were treated with TGF-β1 and cultured for an additional 24 hours or 48 hours, and then the cells were collected. The collected cells were lysed in RIPA buffer containing protease inhibitors to extract proteins, and immunoblotting was performed by loading an equal amount of proteins. The protein expression level of ZO-1 was confirmed using an antibody of ZO-1 (anti-ZO antibody, 13663, Abcam), an epithelial biomarker during the EMT process. At this time, anti-tubulin antibody (T5168, Sigma-Aldrich) was used as an internal control, and HRP-conjugated anti-rabbit antibody (ADI-SAB-300-J, Enzo Life Sciences) was used as a secondary antibody.

[5] = tested on: human hepatic stellate cell line (LX2); experiment: Cell proliferation by MTS assay in hepatic stellate cell line; type: cell-based; conditions: rhKAI1 200 or 500 ng/mL, 24 or 48 hours
Method: (§3) It is known that fibrosis occurs due to excessive proliferation and activation of hepatic stellate cells. Therefore, changes in fibrosis-related gene expression by treatment with KAI1 protein were confirmed in human hepatic stellate cell line (LX2).
(§4) Specifically, the LX2 cell line was treated with recombinant human KAI1 protein (rhKAI1) at a concentration of 200 ng/mL or 500 ng/mL, respectively. Thereafter, the cells were cultured for 24 hours or 48 hours and collected to confirm cell proliferation and fibrosis-related gene expression in the cells. The cell proliferation was measured using MTS assay. RNA from the collected cells was extracted with Trizol, cDNA was synthesized, and then changes in expression of fibrosis-related genes (α-SMA, Col1a1, Vimentin, TGF-β, and GFAP) were confirmed by qPCR analysis.

[6] = tested on: human hepatic stellate cell line (LX2); experiment: qPCR of fibrosis-related genes in hepatic stellate cell line; type: cell-based; conditions: rhKAI1 200 or 500 ng/mL, 24 or 48 hours
Method: as §3, §4

[7] = tested on: human hepatic stellate cell line (LX2); experiment: Immunoblotting of fibrosis-related proteins in hepatic stellate cell line; type: cell-based; conditions: 200 or 500 ng/mL, 24 or 48 hours, vs. untreated group
Method: as §4
The expression of fibrosis-related proteins was confirmed in human hepatic stellate cell line (LX2) treated with KAI1 protein in the same manner as in Example 4.1. At this time, anti-Vimentin antibody (sc-5565, Santa Cruz Biotech.), anti-Col1α1 antibody (NBP1-30054, Novus Biological), anti-α-SMA antibody (A5228, Sigma-Aldrich), anti-GFAP antibody (Z0334, Dako), and anti-GAPDH antibody (MCA4739, AbD Serptec) were used as primary antibodies, and HRP-conjugated anti-rabbit antibody (ADI-SAB-300-J, Enzo Life Sciences) and anti-mouse antibody (ADI-SAB-100-J) were used as secondary antibodies.

[8] = tested on: human hepatic stellate cell line (LX2); experiment: qPCR of senescence-related genes in hepatic stellate cell line; type: cell-based; conditions: 200 or 500 ng/mL, 24 or 48 hours, vs. control group
Method: as §4
It is known that hepatic stellate cells can inhibit hepatic fibrosis by inducing senescence in the liver. Therefore, the expression of senescence-related genes (HGMA1, p16, p21 and p53, SIRT1) was confirmed in human hepatic stellate cell line (LX2) treated with KAI1 protein in the same manner as in Example 4.1.

[9] = tested on: human hepatic stellate cell line (LX2); experiment: Immunoblotting of senescence-related proteins in hepatic stellate cell line; type: cell-based; conditions: 200 or 500 ng/mL, 24 or 48 hours, vs. untreated group
Method: as §4
The expression of senescence-related proteins was confirmed in human hepatic stellate cell line (LX2) treated with KAI1 protein in the same manner as in Example 4.1. At this time, anti-SIRT1 antibody (ab32441, Abcam), anti-p16 antibody (10883-1-ap, Protein tech.), and anti-GAPDH antibody (MCA4739, AbD Serptec) were used as primary antibodies, and HRP-conjugated anti-rabbit antibody (ADI-SAB-300-J, Enzo Life Sciences) and anti-mouse antibody (ADI-SAB-100-J) were used as secondary antibodies.

In the case of “pepKAI1 WT: 20 amino acid functional KAI1 peptide with Y*C and EED motifs, NRPEVTYPCSCEVKGEEDNS (SEQ ID NO: 2) (Wild type KAI1 polypeptide)”, the “expression of fibrosis-related genes (α-SMA, Col1a1, TIMP1, Vimentin, TGF-β, fibronectin) increased by TGF-β1 (qPCR)” value [1] is reported as “reduced” and the “fibrosis-related gene expression compared to the group treated with rhKAI1 protein (qPCR)” value ([1]; comparison with rhKAI1) is reported as “further reduced”.

For “pepKAI1 Mut: mutant peptide with both Y*C and EED substituted with alanine, NRPEVTAPASCEVKGAAANS (SEQ ID NO: 3) (Mutant KAI1 polypeptide)”, the “expression of fibrosis-related genes (α-SMA, Col1a1, TIMP1, Vimentin, TGF-β, fibronectin) increased by TGF-β1 (qPCR)” value [1] was “not reduced”.

B1: KAI1 protein: Human CD82/KAI-1 Protein (His Tag), Sino Biological; comprises extracellular domain, amino acids 111 to 228 of SEQ ID NO: 1 (SEQ ID NO: 4) (protein)
chain: GKLKQEMGGIVTELIRDYNSSREDSLQDAWDYVQAQVKCCGWVSFYNWTDNAELMNRPEVTYPCSCEVKGEEDNSLSVRKGFCEAPGNRTQSGNHPEDWPVYQEGCMEKVQAWLQENL
modifications: His tag; Extracellular domain of recombinant human KAI1 protein
For B1, the “degree of cell damage and inflammatory cell infiltration (H&E staining of liver tissue)” value [2] was “reduced”, the “gene expression of Col1a1 in liver tissue (qPCR)” value [3] was “reduced” and the “gene expression of TGF-β1 in liver tissue (qPCR)” value [3] was “reduced”. For the same molecule, the “gene expression of fibronectin in liver tissue (qPCR)” value [3] was “reduced”, the “expression of fibrosis-related genes (α-SMA, Col1a1, TIMP1, MMP9) increased by TGF-β1 (qPCR)” value (liver cell line (AML12)) was “reduced” and the “expression of ZO-1 protein reduced by TGF-β1 (immunoblotting)” value [4] was “recovered”. For the same molecule, the “cell proliferation (MTS assay)” value [5] was “significantly reduced”, the “gene expression of Col1a1 (qPCR)” value [6] was “significantly reduced” and the “gene expression of GFAP, marker gene for resting stellate cells (qPCR)” value [6] was “tendency to increase”. For the same molecule, the “gene expression of TGF-β (qPCR)” value [6] was “significantly reduced”, the “gene expression of Vimentin (qPCR)” value [6] was “significantly reduced” and the “gene expression of α-SMA (qPCR)” value [6] was “significantly reduced”. The “protein expression of Col1α1 (immunoblotting)” value [7] was “reduced”, the “protein expression of GFAP (immunoblotting)” value [7] was “increased” and the “protein expression of Vimentin (immunoblotting)” value [7] was “reduced”. For the same molecule, the “protein expression of α-SMA (immunoblotting)” value [7] was “reduced”, the “expression of SIRT1, a senescence inhibition marker (qPCR)” value [8] was “reduced” and the “expression of senescence marker gene HGMA1 (qPCR)” value [8] was “increased”. The “expression of senescence marker gene p16 (qPCR)” value [8] was “increased”, the “expression of senescence marker gene p21 (qPCR)” value [8] was “increased” and the “expression of senescence marker gene p53 (qPCR)” value [8] was “increased”. The “expression of SIRT1, a senescence inhibition marker protein (immunoblotting)” value [9] was “reduced” and the “expression of p16, a senescence marker protein (immunoblotting)” value [9] was “increased”.
